Assay results as given in the Human Domainome abundance scans (Beltran et al. 2025).
± gives the uncertainty stated by the source.

B1: Double-stranded RNA-specific adenosine deaminase, residues 296 to 358; numbered along this chain, P55265 (parent)
chain: MAEIKEKICDYLFNVSDSSALNLAKNIGLTKARDINAVLIDMERQGDVYRQGTTPPIWHLTDK

Variants of: B1
Experiment: abundance fitness (aPCA) (normalised: wild type 0, dead -1); higher = more abundant; growth selection in yeast, the domain comes from the species named
Settings: Homo sapiens

Variant	abundance fitness
MAEIKEKICDYLFNVSDSSALNIAKNIGLTKARDINAVLIDMERQGDVYRQGTTPPIWHLTDK	0.372 ± 0.062
MAEIKEKICDYLFNVSDSSALNPAKNIGLTKARDINAVLIDMERQGDVYRQGTTPPIWHLTDK	-0.299 ± 0.061
MAEIKEKICDYLFNVSDSSALNVAKNIGLTKARDINAVLIDMERQGDVYRQGTTPPIWHLTDK	-0.316 ± 0.053
MAEIKEKICDYLFNVSDSSALNTAKNIGLTKARDINAVLIDMERQGDVYRQGTTPPIWHLTDK	-0.421 ± 0.079
MAEIKEKICDYLFNVSDSSALNHAKNIGLTKARDINAVLIDMERQGDVYRQGTTPPIWHLTDK	-0.453 ± 0.1
MAEIKEKICDYLFNVSDSSALNEAKNIGLTKARDINAVLIDMERQGDVYRQGTTPPIWHLTDK	-0.329 ± 0.067
MAEIKEKICDYLFNVSDSSALNDAKNIGLTKARDINAVLIDMERQGDVYRQGTTPPIWHLTDK	-0.313 ± 0.11
MAEIKEKICDYLFNVSDSSALNYAKNIGLTKARDINAVLIDMERQGDVYRQGTTPPIWHLTDK	-0.678 ± 0.12
MAEIKEKICDYLFNVSDSSALNKAKNIGLTKARDINAVLIDMERQGDVYRQGTTPPIWHLTDK	-0.531 ± 0.14
MAEIKEKICDYLFNVSDSSALNSAKNIGLTKARDINAVLIDMERQGDVYRQGTTPPIWHLTDK	-0.424 ± 0.077
MAEIKEKICDYLFNVSDSSALNLQKNIGLTKARDINAVLIDMERQGDVYRQGTTPPIWHLTDK	-0.171 ± 0.1
MAEIKEKICDYLFNVSDSSALNLEKNIGLTKARDINAVLIDMERQGDVYRQGTTPPIWHLTDK	-0.447 ± 0.082
MAEIKEKICDYLFNVSDSSALNLLKNIGLTKARDINAVLIDMERQGDVYRQGTTPPIWHLTDK	-0.513 ± 0.073
MAEIKEKICDYLFNVSDSSALNLVKNIGLTKARDINAVLIDMERQGDVYRQGTTPPIWHLTDK	-0.58 ± 0.053
MAEIKEKICDYLFNVSDSSALNLWKNIGLTKARDINAVLIDMERQGDVYRQGTTPPIWHLTDK	-0.707 ± 0.088
MAEIKEKICDYLFNVSDSSALNLKKNIGLTKARDINAVLIDMERQGDVYRQGTTPPIWHLTDK	-0.616 ± 0.14
MAEIKEKICDYLFNVSDSSALNLGKNIGLTKARDINAVLIDMERQGDVYRQGTTPPIWHLTDK	-0.495 ± 0.047
MAEIKEKICDYLFNVSDSSALNLCKNIGLTKARDINAVLIDMERQGDVYRQGTTPPIWHLTDK	-0.179 ± 0.079
MAEIKEKICDYLFNVSDSSALNLFKNIGLTKARDINAVLIDMERQGDVYRQGTTPPIWHLTDK	-0.566 ± 0.086
MAEIKEKICDYLFNVSDSSALNLPKNIGLTKARDINAVLIDMERQGDVYRQGTTPPIWHLTDK	-0.49 ± 0.098
MAEIKEKICDYLFNVSDSSALNLHKNIGLTKARDINAVLIDMERQGDVYRQGTTPPIWHLTDK	-0.488 ± 0.092
MAEIKEKICDYLFNVSDSSALNLMKNIGLTKARDINAVLIDMERQGDVYRQGTTPPIWHLTDK	-0.418 ± 0.088

Variant	abundance fitness
MAEIKEKICDYLFNVSDSSALNLRKNIGLTKARDINAVLIDMERQGDVYRQGTTPPIWHLTDK	-0.544 ± 0.058
MAEIKEKICDYLFNVSDSSALNLIKNIGLTKARDINAVLIDMERQGDVYRQGTTPPIWHLTDK	-0.552 ± 0.094
MAEIKEKICDYLFNVSDSSALNLNKNIGLTKARDINAVLIDMERQGDVYRQGTTPPIWHLTDK	-0.722 ± 0.13
MAEIKEKICDYLFNVSDSSALNLTKNIGLTKARDINAVLIDMERQGDVYRQGTTPPIWHLTDK	-0.276 ± 0.077
MAEIKEKICDYLFNVSDSSALNLYKNIGLTKARDINAVLIDMERQGDVYRQGTTPPIWHLTDK	-0.406 ± 0.1
MAEIKEKICDYLFNVSDSSALNLDKNIGLTKARDINAVLIDMERQGDVYRQGTTPPIWHLTDK	-0.838 ± 0.13
MAEIKEKICDYLFNVSDSSALNLAKNGGLTKARDINAVLIDMERQGDVYRQGTTPPIWHLTDK	-0.611 ± 0.07
MAEIKEKICDYLFNVSDSSALNLAKNLGLTKARDINAVLIDMERQGDVYRQGTTPPIWHLTDK	-0.01 ± 0.046
MAEIKEKICDYLFNVSDSSALNLAKNSGLTKARDINAVLIDMERQGDVYRQGTTPPIWHLTDK	-0.435 ± 0.048
MAEIKEKICDYLFNVSDSSALNLAKNRGLTKARDINAVLIDMERQGDVYRQGTTPPIWHLTDK	-0.584 ± 0.053
MAEIKEKICDYLFNVSDSSALNLAKNKGLTKARDINAVLIDMERQGDVYRQGTTPPIWHLTDK	-0.324 ± 0.084
MAEIKEKICDYLFNVSDSSALNLAKNEGLTKARDINAVLIDMERQGDVYRQGTTPPIWHLTDK	-0.274 ± 0.078
MAEIKEKICDYLFNVSDSSALNLAKNPGLTKARDINAVLIDMERQGDVYRQGTTPPIWHLTDK	-0.452 ± 0.061
MAEIKEKICDYLFNVSDSSALNLAKNHGLTKARDINAVLIDMERQGDVYRQGTTPPIWHLTDK	-0.548 ± 0.11
MAEIKEKICDYLFNVSDSSALNLAKNNGLTKARDINAVLIDMERQGDVYRQGTTPPIWHLTDK	-0.538 ± 0.11
MAEIKEKICDYLFNVSDSSALNLAKNDGLTKARDINAVLIDMERQGDVYRQGTTPPIWHLTDK	-0.277 ± 0.072
MAEIKEKICDYLFNVSDSSALNLAKNMGLTKARDINAVLIDMERQGDVYRQGTTPPIWHLTDK	-0.359 ± 0.06
MAEIKEKICDYLFNVSDSSALNLAKNWGLTKARDINAVLIDMERQGDVYRQGTTPPIWHLTDK	-0.818 ± 0.13
MAEIKEKICDYLFNVSDSSALNLAKNQGLTKARDINAVLIDMERQGDVYRQGTTPPIWHLTDK	-0.507 ± 0.072
MAEIKEKICDYLFNVSDSSALNLAKNVGLTKARDINAVLIDMERQGDVYRQGTTPPIWHLTDK	-0.162 ± 0.059
MAEIKEKICDYLFNVSDSSALNLAKNAGLTKARDINAVLIDMERQGDVYRQGTTPPIWHLTDK	-0.471 ± 0.053
